Measured values published in publication PMC8000039, “Toxin-Activating Stapled Peptides Discovered by Structural Analysis Were Identified as New Therapeutic Candidates That Trigger Antibacterial Activity against Mycobacterium tuberculosis in the Mycobacterium smegmatis Model” (Microorganisms, 2021).

Key:
[1] = system: VapBC26-expressing M. smegmatis mc2155 cells; type: cell-based, Mycobacterium smegmatis
[2] = system: VapBC26-harboring M. smegmatis; experiment: Confocal microscopy of FITC-labeled peptides (cell permeability); type: cell-based, Mycobacterium smegmatis; conditions: FITC-labeled peptide 10 μM, 1 h, 37 °C, trypsin to degrade surface-bound and extracellular peptide, two independent experiments
Method: Confocal microscopy was used to assess the permeability of M. smegmatis using FITC-labeled peptides. Cultures of M. smegmatis grown in complete 7H9 medium to mid-logarithmic phase (OD600 0.3–0.5) were diluted 5-fold with Muller-Hinton broth (BD Biosciences, Franklin Lakes, NJ, USA). Diluted cell suspensions were aliquoted into Eppendorf tubes and treated with 10 μM peptide. After 1 h of incubation at 37 °C and 100 rpm, the cell suspensions were washed with PBS. If successful internalization of FITC-labeled peptides is achieved, then fluorescence will be detected in the images. Surface-bound peptides and extracellular peptides were degraded by trypsin, and thus remained fluorescence signals in the images indicate the indeed internalization of peptide. Images were acquired on a TCS8 confocal scope (Leica Microsystems, Wetzlar, Germany) with a 63× oil immersion objective.

[3] = CD spectroscopy, helicity calculated by CDNN software; type: physicochemical; conditions: 50 μM peptide, 10 mM potassium phosphate pH 7, 100 mM ammonium sulfate, 20 °C, average of three scans
Method: CD measurements were conducted at 20 °C using a Chirascan Plus spectropolarimeter (Applied Photophysics, Leatherhead, UK) in a cuvette with a 1 mm path length. The peptide samples were prepared at 50 μM in buffer consisting of 10 mM potassium phosphate (pH 7) and 100 mM ammonium sulfate. CD scans were taken from 180 nm to 260 nm at a speed of 100 nm/min with a 1 nm bandwidth. The helicity of each peptide was calculated by CDNN software.

VapC26 α4_54–65: linear α4-mimicking peptide of VapC26 (residues 54–65), from the authors' previous study (DAELAVLRELAG; UniProt O53779 54-65, looked up, fragment)
effect on cell growth (OD600) compared with control cells [1]: only a slight effect | cell penetration / uptake, fluorescence signal inside the cells [2]: barely observed | Helicity (α-helical propensity) [3]: 20.8%
